Reference: article PMC5127641 (eLife, 2016)
Where “and” joins values, the source holds several entries; their conditions need not be identical. Equal entries are not always repeated.

Target: M-CDP04 (αMCL1)
Assay: BLI; biotinylated BCL2 homolog (25 nM) immobilised on streptavidin biosensors, designed protein in solution at defined concentrations; Octet RED96; 10 mM HEPES pH 7.4, 150 mM NaCl, 3 mM EDTA, 0.05% surfactant P20, 0.5% non-fat dry milk; titrations in triplicate, 1:1 binding model
Settings: both partners purified

koff: 0.199 s⁻¹ and 0.186 s⁻¹ and 0.148 s⁻¹ and 0.178 s⁻¹
kon: 5830 M⁻¹ s⁻¹ and 9300 M⁻¹ s⁻¹ and 13200 M⁻¹ s⁻¹ and 9440 M⁻¹ s⁻¹
B1: Bcl-B (natural protein)
chain: ADPLRERTELLLADYLGYCAREPGTPEPAPSTPEAAVLRSAAARLRQIHRSFFSAYLGYPGNRFELVALMADSVLSDSPGPTWGRVVTLVTFAGTLLERGPLVTARWKKWGFQPRLKEQEGDVARDCQRLVALLSSRLMGQHRAWLQAQGGWDGFCHFFRTPFPLA
modifications: biotin (enzymatic, BirA)
